The values that follow are results of earlier work, collected in patent publication US5679705A, “Triterpene derivatives with immunosuppressant activity” (Merck & Co., Inc., priority 1996, dated 1997).

As usually defined, the pIC50 is the IC50 on a negative log10 scale, so that one unit is a factor of ten.

pIC50: −log10 of the molar value.

The target in this data set is T1, Kv 1.3 channels (CHO cells transfected with Kv 1.3 channels) (Homo sapiens, UniProt P22001).
T1 construct: expressed in transfected cells; host or cells: CHO cells
T1 sequence (P22001 whole entry): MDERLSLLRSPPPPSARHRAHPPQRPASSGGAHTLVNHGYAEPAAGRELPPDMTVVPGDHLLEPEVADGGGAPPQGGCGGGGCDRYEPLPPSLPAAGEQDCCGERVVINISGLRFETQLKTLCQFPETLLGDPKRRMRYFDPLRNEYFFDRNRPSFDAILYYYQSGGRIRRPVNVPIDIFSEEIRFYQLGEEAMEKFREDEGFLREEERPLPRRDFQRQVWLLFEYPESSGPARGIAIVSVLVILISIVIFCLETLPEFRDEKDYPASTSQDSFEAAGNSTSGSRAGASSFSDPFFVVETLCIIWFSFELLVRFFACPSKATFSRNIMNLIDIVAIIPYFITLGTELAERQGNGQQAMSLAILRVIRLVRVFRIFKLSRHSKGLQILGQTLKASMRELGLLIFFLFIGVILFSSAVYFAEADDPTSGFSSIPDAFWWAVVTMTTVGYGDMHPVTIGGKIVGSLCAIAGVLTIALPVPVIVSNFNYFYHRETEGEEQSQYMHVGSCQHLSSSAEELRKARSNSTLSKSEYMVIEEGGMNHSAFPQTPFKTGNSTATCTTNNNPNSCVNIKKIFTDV
To be noted: stated in the method for the peptide used to establish the efflux window; read-out: IC50 (blocker of Kv 1.3 channels).

For the substance “margatoxin (TIINVKCTSPKQCLPPCKAQFGQSAGAKCMNGKCKCYPH; UniProt P40755 1-39, looked up)”, the pIC50 was 10.00.
